# Results from patent US20230241113A1 (IMMATICS BIOTECHNOLOGIES, published 2023).
# Molecular target: T1, HLA-A*02:01 (human)
# T1 construct: captured on streptavidin plates, detected with anti-β2m; also called peptide-receptive MHC molecules; MHC class I
# Experiment: UV-ligand exchange + anti-β2m ELISA; exchange yield grade: ≥10% +, ≥20% ++, ≥50 +++, ≥75% ++++
# Method: The individual peptide-MHC complexes were produced by UV-ligand exchange, where a UV-sensitive peptide is cleaved upon UV-irradiation and exchanged with the peptide of interest as analyzed. Only peptide candidates that can effectively bind and stabilize the peptide-receptive MHC molecules prevent dissociation of the MHC complexes. To determine the yield of the exchange reaction, an ELISA was performed based on the detection of the light chain (β2m) of stabilized MHC complexes. The assay was performed as generally described in Rodenko et al. (Rodenko et al., 2006).
# 96 well MAXISorp plates (NUNC) were coated over night with 2 μg/ml streptavidin in PBS at room temperature, washed 4× and blocked for 1 h at 37° C. in 2% BSA containing blocking buffer. Refolded HLA-A*02:01/MLA-001 monomers served as standards, covering the range of 15-500 ng/ml. Peptide-MHC monomers of the UV-exchange reaction were diluted 100 fold in blocking buffer. Samples were incubated for 1 h at 37° C., washed four times, incubated with 2 μg/ml HRP conjugated anti-β2m for 1 h at 37° C., washed again and detected with TMB solution that is stopped with […]. Absorption was measured at 450 nm. Candidate peptides that show a high exchange yield (preferably higher than 50%, most preferred higher than 75%) are generally preferred for a generation and production of antibodies or fragments thereof, and/or T cell receptors or fragments thereof, as they show sufficient avidity to the MHC molecules and prevent dissociation of the MHC complexes.
row,Binder,peptide exchange yield [%]
1,SLLGKPGLTI (also called SLLGKPGLTI) [altORF-060],≥ 75
2,SLGPPPVGV (also called SLGPPPVGV) [CIZ1-001],≥ 75
3,ALMDGSESRFFV (also called ALMDGSESRFFV) [BSG-001],≥ 75
4,TLLSYSIPL (From a human endogenous retrovirus; also called TLLSYSIPL) [HERVK-003],≥ 75
5,GLIDDKGTIKL (also called GLIDDKGTIKL) [CDC2-006],≥ 75
6,VLPWQPLLL (also called VLPWQPLLL) [altORF-059],20 to 50
7,LLLQIEPAA (also called LLLQIEPAA) [altORF-068],≥ 75
8,LLLATLENL (also called LLLATLENL) [altORF-058],≥ 75
9,ALHDSPVYL (also called ALHDSPVYL) [altORF-004],≥ 75
10,ALKELMGPA (also called ALKELMGPA) [altORF-065],20 to 50
11,SLMEVTHDL (also called SLMEVTHDL) [LARS-001],≥ 75
12,LLLALRLSL (also called LLLALRLSL) [altORF-062],10 to 20
13,KLPEGHLPEV (also called KLPEGHLPEV) [AHNAK2-003],≥ 75
14,STTIINLIL (From a human endogenous retrovirus; also called STTIINLIL) [HERVK-002],20 to 50
15,FLQEGDLISV (also called FLQEGDLISV) [altORF-007],≥ 75
16,LLCPVVLQL (also called LLCPVVLQL) [altORF-067],≥ 75
17,KIIEDLANTV (also called KIIEDLANTV) [KRT18-001],≥ 75
18,WLMPVMPAL (also called WLMPVMPAL) [altORF-069],≥ 75
19,IAISQLTFV (also called IAISQLTFV) [altORF-063],≥ 75
20,LAASTTFLGV (also called LAASTTFLGV) [altORF-057],≥ 75
21,LSFKRSLSI (also called LSFKRSLSI) [altORF-061],20 to 50
22,ILNELLNSI (also called ILNELLNSI) [altORF-064],≥ 75
23,ALWEEVKATSL (also called ALWEEVKATSL) [altORF-005],≥ 75
24,KLLADAFKV (also called KLLADAFKV) [altORF-066],≥ 75
25,ILQSLVPAA (also called ILQSLVPAA) [altORF-006],≥ 75
